Three proteins from paper PMC4613710, “A biophysical study on molecular physiology of the uncoupling proteins of the central nervous system” (Bioscience Reports, 2015) can be followed below.

Series [1] concerns the molecule itself. Kind of series: native gel or EMSA; semi-native PAGE (12% gel), UCP reconstituted in POPC liposomes titrated with SDS to 83 mM (about 40x CMC), Coomassie stain; bands identified by LC-MS/MS. Background: A gel shift assay detects complexes by their altered migration in electrophoresis.
Series [2] concerns the molecule itself. Kind of series: native gel or EMSA; semi-native PAGE (12% gel, 2 mM SDS in running buffer only), UCP reconstituted in POPC liposomes, loading buffer lacking SDS, Coomassie stain; bands identified by LC-MS/MS.
Series [3] concerns the molecule itself. Nature of the series: far-UV CD spectroscopy, SDS titration; UCP reconstituted in POPC liposomes titrated with SDS (0-83 mM); normalised theta208/theta222 against [SDS], Hill fit; K1/2 = [SDS] at 50% protein dissociation; tetramer to dimers.
Series [4] concerns the molecule itself. Nature of the series: other fluorescence titration; Trp fluorescence (excitation 295 nm, 25 C) of UCP in POPC liposomes titrated with SDS (0-83.9 mM); maximum intensity against [SDS], Hill fit; Ka1/2 low SDS range (0-10 mM): tetramer to tight dimers; Kb1/2 high SDS range (10-100 mM): tight dimers to loose dimers and monomers.

Usually stoichiometry N stands for a count of units in the complex or per binding partner.

B1: human uncoupling protein 5 (His6-ENLYFQG-hUCP5) (natural protein, UniProt O95258 1-325, looked up)
chain: MGIFPGIILIFLRVKFATAAVIVSGHQKSTTVSHEMSGLNWKPFVYGGLASIVAEFGTFPVDLTKTRLQVQGQSIDARFKEIKYRGMFHALFRICKEEGVLALYSGIAPALLRQASYGTIKIGIYQSLKRLFVERLEDETLLINMICGVVSGVISSTIANPTDVLKIRMQAQGSLFQGSMIGSFIDIYQQEGTRGLWRGVVPTAQRAAIVVGVELPVYDITKKHLILSGMMGDTILTHFVSSFTCGLAGALASNPVDVVRTRMMNQRAIVGHVDLYKGTVDGILKMWKHEGFFALYKGFWPNWLRLGPWNIIFFITYEQLKRLQI
notes: uncoupling protein 5 (UCP5), human; cDNA bought from A.T.C.C., sub-cloned into pET26b(+); Tetramer is the predominant form in POPC liposomes without SDS; dimers and a few monomers at 83 mM SDS; also called neuronal UCP
Take B1: the “stoichiometry N” value in series [1] amounted to 2; in series [2], 4. Further, the “CD K1/2 ([SDS] at 50% protein dissociation)” value in series [3] worked out at 1 ± 0.1 mM SDS. In addition, in series [4], the “Fl Ka1/2 (first transition, tetramer to dimers, [SDS])” value worked out at 0.6 ± 0.1 mM SDS. For the same protein, the “Fl Kb1/2 (second transition, dimers to loose dimers and monomers, [SDS])” value in series [4] came out at 8.9 ± 0.2 mM SDS.

B2: human uncoupling protein 4 (His6-ENLYFQG-hUCP4) (natural protein, UniProt O95847 1-323, looked up)
chain: MSVPEEEERLLPLTQRWPRASKFLLSGCAATVAELATFPLDLTKTRLQMQGEAALARLGDGARESAPYRGMVRTALGIIEEEGFLKLWQGVTPAIYRHVVYSGGRMVTYEHLREVVFGKSEDEHYPLWKSVIGGMMAGVIGQFLANPTDLVKVQMQMEGKRKLEGKPLRFRGVHHAFAKILAEGGIRGLWAGWVPNIQRAALVNMGDLTTYDTVKHYLVLNTPLEDNIMTHGLSSLCSGLVASILGTPADVIKSRIMNQPRDKQGRGLLYKSSTDCLIQAVQGEGFMSLYKGFLPSWLRMTPWSMVFWLTYEKIREMSGVSPF
notes: uncoupling protein 4 (UCP4), human; cDNA synthesized by GenScript, sub-cloned into pET26b(+); Tetramer is the predominant form in POPC liposomes without SDS; dimers and a few monomers at 83 mM SDS; also called neuronal UCP
B2: the entries for the “stoichiometry N” value in series [1] and in series [2] were 2 and 4, respectively. The “CD K1/2 ([SDS] at 50% protein dissociation)” value in series [3] worked out at 1 ± 0.1 mM SDS. In series [4], the “Fl Ka1/2 (first transition, tetramer to dimers, [SDS])” value is 0.6 ± 0.1 mM SDS. Further, the “Fl Kb1/2 (second transition, dimers to loose dimers and monomers, [SDS])” value in series [4] was 9.8 ± 0.3 mM SDS.

B3: human uncoupling protein 2 (His6-ENLYFQG-hUCP2) (natural protein, UniProt P55851 1-309, looked up)
chain: MVGFKATDVPPTATVKFLGAGTAACIADLITFPLDTAKVRLQIQGESQGPVRATASAQYRGVMGTILTMVRTEGPRSLYNGLVAGLQRQMSFASVRIGLYDSVKQFYTKGSEHASIGSRLLAGSTTGALAVAVAQPTDVVKVRFQAQARAGGGRRYQSTVNAYKTIAREEGFRGLWKGTSPNVARNAIVNCAELVTYDLIKDALLKANLMTDDLPCHFTSAFGAGFCTTVIASPVDVVKTRYMNSALGQYSSAGHCALTMLQKEGPRAFYKGFMPSFLRLGSWNVVMFVTYEQLKRALMAACTSREAPF
notes: uncoupling protein 2 (UCP2), human; cDNA clone pET21a-UCP2 sub-cloned into pET26b(+); Tetramer is the predominant form in POPC liposomes without SDS; dimers and a few monomers at 83 mM SDS; PDB 2LCK is only viewed as a model of UCP2; also called neuronal UCP
With B3, the “stoichiometry N” value in series [1] was determined as 2. Besides, in series [2], the “stoichiometry N” value amounted to 4. Also, the “CD K1/2 ([SDS] at 50% protein dissociation)” value in series [3] was determined as 1.1 ± 0.1 mM SDS. For the same protein, in series [4], the “Fl Ka1/2 (first transition, tetramer to dimers, [SDS])” value was 0.61 ± 0.1 mM SDS; the “Fl Kb1/2 (second transition, dimers to loose dimers and monomers, [SDS])” value is 7.1 ± 0.3 mM SDS.
